In the RNAGym collection of RNA variant scans (doi:10.1073/pnas.2313332121):
Fewer inactive variants are shown than the library holds.

B1: TPR 5TU (parent)
chain: GGAUCUUCUCGAUCUAACAAAAAAGACAAAUCUGCCACAAAGCUUGAGAGCAUCUUCGGAUGCAGAGGCGGCAGCCUUCGGUGGCGCGAUAGCGCCAACGUUCUCAACUAUGACACGCAAAACGCGUGCUCCGUUGAAUGGAGUUUAUCAUG

Variants of: B1
Assay: polymerase ribozyme fitness, log enrichment relative to wild type (log ratio); higher = more active; in vitro selection for triplet polymerase activity
Method in brief: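 One round of in vitro selection, in triplicate, was applied to PCR-built, transcribed mutant libraries of each subunit of a heterodimeric triplet polymerase ribozyme. The steps were annealing with a biotinylated primer, partner subunit and triplets, incubation frozen at −7 °C, gel excision of extended constructs, streptavidin-bead capture and RT-PCR. Fitness is the logarithm, base 2, of genotype enrichment over wild-type enrichment from inverse-variance-weighted replicate averages of Illumina-sequenced inputs and outputs, keeping genotypes with ≥10 input reads and ≥1 read per output.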

Going from GGUUCUUCUCGAUCUAACAAAAAAGUCAAAUCUGCCACAAACCUUGAGAGCAUCUUCUGAUGCAGAGGCGGCAGCCUUCGGUGGCGAGAUAGCGCCAACGUUCUCAACUAUGACACGCAAAACGUGUGCUGGGUUGAAUGGAGUUUAUCAUG [A3U A26U G42C G58U C87A C125U C131G C132G] to GGUUCUUCUCGAUCUAACACAAAAGACAAAUCUGCCACAAAGCUUGAGAGCAUUUUCGGAUGCAGAGGCGGCAGCCUUCGGUGGCCCGAUAGCGCCAACGUUCUCAACUAUGACACGCAAAACGUGUGCUCCGUUGAAUGGAGUUUAUCAUG [A3U A20C C54U G86C C125U], the “polymerase ribozyme fitness (log ratio)” value rises from at most -4.2 to -4.19.

First: GGGUCUUCUCGAUCUAACAAAAAAGACAAAUCUGCCACAAAGCUUGAGAGCAUCUACGGAUGCAGAGGCGGCAGCCUUCGGUGGCGCGAUAGCGCAAACGUUCUCAACUAUGACACGCAAAACGCGUGCUCCGAUGAAUGGAGUUUAUCAUG [A3G U56A C96A U134A]
Second: GGGUCCUCUCGAUCUAACAAAAAAGACAAAUCUGCCACAAAGCUUGAGAGCAUCUUCGGAUGCUGAGGCCGCAGCCUUCGGUGGCACGAGAGUGCCAACGUUCUCAACUAUGACACGCAAAACGCGUGCUCCCUUGAAUGGAGUUUAUUAUG [A3G U6C A64U G70C G86A U90G C93U G133C C149U]
The “polymerase ribozyme fitness (log ratio)” value of the first is higher: -3.26 for the first, at most -4.2 for the second.

Going from GGGUCUUCUCGAUCUAACAAAAAAGACAAAUCUGCCACAAAGCUUGAGAGCAUCAUCGGAUGCAGAGGCGGCAGCCUUCGGUGGCGCGAUAGAGCCAACGUUCUCAACUAUGACACGCAAAACGCGUGCUCCGUUGAAUGGAGUUUAUCAUG [A3G U55A C93A] to GGUUCUUCUCGAUCUCACAAAAAAGACAAAUCUGCCACAAAGCUAGAGAGCAUCUUCGGAUGCAGAGGCGGCAGACUUCGGGGACGCGAUAGCGCCAACGUUCUCAACUAUGACACGUAAAACGCGUGCUCCGUUGAAUGGAGUUUAUCAUG [A3U A16C U45A C75A U82G G84A C118U], the “polymerase ribozyme fitness (log ratio)” value falls from -3.2 to at most -4.2.

GGUUCUUCUCGAUCUGACAAAAAAGACAAAUCUGCAACAAAGCUUGAGAGCAUCUUCGGAUGCAGAGGCGGCAGCCUUCGGUGGCGCGAUACCGCCAACGUUCUCAACUAUGACACGCAAAACCCGUGCUACGUUUAAUGGAGUUUAUCAUG [A3U A16G C36A G92C G124C C131A G136U] and GGUUCUUCUCGAUCUAACACAAAAGACAAAGCUGCAACAAAGCUUGAGAGCAUCUUCGGAUGCAGAGGCGGCAGCCUUCGGUGGCGCGAUAGCGCCAACGUUCUCAACUAUGACACGCAAAACGCGUGCUCCGUUGAAUGGAGUUUAUCAUG [A3U A20C U31G C36A] cannot be ordered by “polymerase ribozyme fitness (log ratio)” value: at most -4.2 for the first, at most -4.2 for the second.

GGGUCUUCGCGAUCUAACAAAAAAGACAAAUCUGCCACAAAGCUUGAGAGUAUCUUCGGAUGCAGACGCGGCAGCCUUCGCUGGCGCGGUAGCGCCGACGUUCUCAACUAUGACACGCAAAACGCGUGCUCCGUUGAAUGGAGUUUAUCAUG [A3G U9G C51U G67C G81C A89G A97G] and GGUUCUUCUCGAUCUUACAAAAAAGACAAAUCUGCCAUAAAGCUUGAGAGCAUCUUCGGAUGCACAGGCGGCAGCCUUCGGUGGCGCAAUAGCGCCAACGUUCUCAACUAUGACACGCAAAACGCGUGCUCCGUUGAAUGGAGUUUAUCAUG [A3U A16U C38U G65C G88A] cannot be ordered by “polymerase ribozyme fitness (log ratio)” value: at most -4.2 for the first, at most -4.2 for the second.

Going from GGUUCUUCUCGAUCUUACAAAAAAGACAAAUCUGCCACAAAGCUUGAGAGCAUCUUCGGAUGCAGAGGCGGCAGCCUUCGGUGGCGCGAUAGUGCCAACGUCCUCAACUAUGACACGCAAAACGCGUGCUCCGUUGAAUGGAGUUUAUCAUG [A3U A16U C93U U102C] to GGGUCAUCUCGAUCUAACAAAAAAGACAAAUCGGCCACAAAGCUUGAGAACAUCUUCGGAUGCAGAGGCGGCAGCCUUUGGUGGCGCGAUAGCGCCAACGUUCUCAACUAUGACACGCAAAACGCGUGAUCCGUUGAAUGGAGUUUAUCAUG [A3G U6A U33G G50A C79U C129A], the “polymerase ribozyme fitness (log ratio)” value falls from -4.1 to at most -4.2.

Going from GGUUCUUCUCGAUCUAACAAGAAAGACAAAUCUGCCACAAAGCUUGAGAGCAUCUUCGGAUGCAGAGGCGGCAGCGUUCGGUGGCUCGAUAGCGCCAACGUUCUCAACUAUGACACGCAAUACGCGUGCUCCGUUGAAUGGAGUUUAUCAUG [A3U A21G C76G G86U A121U] to GGGUCUUCUCGAUCUAACAAAAAAGACAAAUCUGCCACAAAGCUUGAGAGCAAUUUCGGAUGCAGAGGCGGCAGCCUUCGGUGGCGCGAUAGCGUCAACGUUCUCAACUAUGACACGCAAAACGCGUGCUCCGUUGAAUGGAGUUUAUCAUG [A3G U53A C54U C95U], the “polymerase ribozyme fitness (log ratio)” value rises from at most -4.2 to -1.48.

Going from GGUUCUUCUCGGGCUAACCAAAAAGACAAAUCUGCCACAAAGCUUGAGAGCAUCUUCGGAUGCAGAGGCGGCAGCCUUCGGUGGCGCGAUAGCGCCAACGUUCUCAACUAUGACACGCAAAACGCGUGCUCCGUUGAAUGGAUUUUAUCAUG [A3U A12G U13G A19C G143U] to GGUUCUUCUCGAUCUAACAAAAAUGACAAAUCUGCCACAAAGCUUGAGAGCUUCUUCGGGUGCAGAGGCGGCAGCCUUCGGUGGCGCGAUAUCGCCAACGUUCUCAACUAUGACACGCAAAACGCGUGCUCCGUUGAAUGGAGUUUAUCAUG [A3U A24U A52U A60G G92U], the “polymerase ribozyme fitness (log ratio)” value rises from -2.98 to -2.23.

First: GGUUCUUCUCGAUCUAACAAAAAAGACAAAUCUGCCACAAAGCUUGAGAGCAUCUUCGGAUGCAGAGGCGGCAGCCUUCGGUGGCGCGAUAGCGCCAACGUUCUCAACUAUGACACGCAAAACGCGUGCUCCGUUGAAUGGAGUUUAUCAUG [A3U]
Second: GGGUCUUCUCGAGCUAACAAAACAGACAAAUCUGCCACAAAGAUUGAGAGCAUCUUCGGAUGCAGAGGCGGCAGCCUUCGGUGGCGUGAUAGCGCCAACGUUCUCAACUAUGACACGCAAAACGCGUGCUCCGUUGAAUGGAGUUUAUCAUG [A3G U13G A23C C43A C87U]
The “polymerase ribozyme fitness (log ratio)” value of the first is higher: -0.0169 for the first, at most -4.2 for the second.

For GGUUCUUCUCGAUCUACCAAAAAAGACAAAUCUGUCACAAAGCUUGAGAGCAUCUUCGAAUGCAGAGGCGGCAGCCUUCGGUGGAGCGAUAGCGCCAACGUUCUCAACUAUGACACGCAAAACGCGUGCUCCGUUGAAUGGAGUUUAUCAUG [A3U A17C C35U G59A C85A], the “polymerase ribozyme fitness (log ratio)” value was -3.22.
